Assay results as given in patent publication US8535928B2, “Protease and use thereof” (Osaka University, priority 2008, dated 2013).

Columns and labels:
[1] = substrate: C[C@H](NC(=O)CCC(=O)O)C(=O)N[C@@H](C)C(=O)N1CCC[C@H]1C(=O)N[C@@H](Cc1ccccc1)C(=O)Nc1ccc([N+](=O)[O-])cc1; experiment: Rate parameters of Tk-SP with Suc-AAPF-pNA (Michaelis-Menten); assay type: biochemical, Thermococcus kodakaraensis KOD1; details: substrate 0.01 to 2 mM
Experimental: (§1) For examination of the pH dependence and the buffer dependence of the Tk-SP, enzyme reactions were performed using acetate buffers (pH 4.5, 5.0, 5.2, 5.4 and 5.6), MES buffers (pH 5.5, 6.0, 6.5 and 7.0), HEPES buffers (pH 7.0 and 7.5), Tris-HCl buffers (pH 7.0, 7.5, 8.0, 8.5 and 9.0), glycine-NaOH buffers (pH 8.5, 9.0, 9.5 and 10.0) and CAPS-NaOH buffers (pH 9.0, 9.5, 10.0, 10.5, 11.0 and 11.5) in the following procedure. 100 μl of a reaction mixture containing a 50 mM buffer and 2 mM Suc-AAPF-pNA (synthetic substrate) was incubated at 20° C. for 5 minutes. To this, 0.1 μg of the Tk-SP was added and the reaction mixture was further incubated at 20° C. for 10 minutes. The reaction was stopped by addition of 10 μl of acetic acid, and then the amount of p-nitroaniline produced from the synthetic substrate Suc-AAPF-pNA was determined by use of the absorption coefficient of 8900 M^−1 cm^−1 from the absorbance at 410 nm in an ultraviolet spectrophotometer (Beckman model DU640). The amount of the enzyme which catalyzes the production of 1 μmol of p-nitroaniline per minute was defined as “one unit.” The enzyme activity per milligram of the protein was defined as specific activity.
(§2) By use of, as a substrate, Suc-AAPF-pNA at various concentrations ranging from 0.01 to 2 mM, the specific activity of the Tk-SP was measured at 20 and 80° C. The measurement procedure was the same as that of Example 2. The obtained values were applied to the Michaelis-Menten equation for calculation of the rate parameters. For comparison, the specific activity of a known thermostable protease, Tk-subtilisin (see nonpatent literature 1) was similarly measured and then the rate parameters thereof were calculated.

[2] = substrate: C[C@H](NC(=O)CCC(=O)O)C(=O)N[C@@H](C)C(=O)N1CCC[C@H]1C(=O)N[C@@H](Cc1ccccc1)C(=O)Nc1ccc([N+](=O)[O-])cc1; experiment: Rate parameters of Tk-subtilisin with Suc-AAPF-pNA (Michaelis-Menten), comparison; assay type: biochemical, Thermococcus kodakaraensis KOD1; details: substrate 0.01 to 2 mM
Experimental: as §1, §2

B1: Thermococcus kodakaraensis KOD1 protease Tk-SP (mature subtilisin-like serine protease, SEQ ID NO: 1 or SEQ ID NO: 3) (Thermococcus kodakarensis KOD1) (protein)
chain: VETEGLDESAAQVMATNMWNLGYDGSGITIGIIDTGIDASHPDLQGKVIGWVDFVNGKTTPYDDNGHGTHVASIAAGTGAASNGKYKGMAPGAKLVGIKVLNGQGSGSISDIINGVDWAVQNKDKYGIKVINLSLGSSQSSDGTDSLSQAVNNAWDAGLVVVVAAGNSGPNKYTVGSPAAASKVITVGAVDKYDVITDFSSRGPTADNRLKPEVVAPGNWIIAARASGTSMGQPINDYYTAAPGTSMATPHVAGIAALLLQAHPSWTPDKVKTALIETADIVKPDEIADIAYGAGRVNAYKAAYYDNYAKLTFTGYVSNKGSQSHQFTISGAGFVTATLYWDNSGSDLDLYLYDPNGNQVDYSYTAYYGFEKVGYYNPTAGTWTIKVVSYSGSANYQVDVVSDGSLGQPSGGGSEPSPSPSPEPTV
notes: C-terminus at 562 or 563
Km ([1]; other: 20° C., 20.0 °C): 117 µM | Vmax ([1]; other: 20° C., 20.0 °C): 2.312 U/mg | kcat ([1]; other: 20° C., 20.0 °C): 1.704 S^−1 | Km ([1]; other: 80° C., 80.0 °C): 416 µM | Vmax ([1]; other: 80° C., 80.0 °C): 34.84 U/mg | kcat ([1]; other: 80° C., 80.0 °C): 25.668 S^−1

B2: Thermococcus kodakaraensis KOD1 Tk-subtilisin (Tk-sub) (Thermococcus kodakarensis KOD1) (protein)
chain: GKPSWLGGGSTQPAQTIPWGIERVKAPSVWSITDGSVSVIQVAVLDTGVDYDHPDLAANIAWCVSTLRGKVSTKLRDCADQNGHGTHVIGTIAALNNDIGVVGVAPGVQIYSVRVLDARGSGSYSDIAIGIEQAILGPDGVADKDGDGIIAGDPDDDAAEVISMSLGGPADDSYLYDMIIQAYNAGIVIVAASGNEGAPSPSYPAAYPEVIAVGAIDSNDNIASFSNRQPEVSAPGVDILSTYPDDSYETLMGTSMATPHVSGVVALIQAAYYQKYGKILPVGTFDDISKNTVRGILHITADDLGPTGWDADYGYGVVRAALAVQAALG
Km ([2]; other: 20° C., 20.0 °C): 4000 µM | Vmax ([2]; other: 20° C., 20.0 °C): 38.00 U/mg | kcat ([2]; other: 20° C., 20.0 °C): 26.00 S^−1 | Km ([2]; other: 80° C., 80.0 °C): 8000 µM | Vmax ([2]; other: 80° C., 80.0 °C): 420.00 U/mg | kcat ([2]; other: 80° C., 80.0 °C): 290.00 S^−1
